Source: article PMC9898208

Key:
Experiment in all cases: single-channel current recording
[1] = biological target: OmpG^L3/L6-SA1.1 (E. coli) (UniProt P76045)
[2] = biological target: OmpG^L3-FLAG/L6-SA1.1 (E. coli) (UniProt P76045)
OmpG^L6-SA1.1 (E. coli) = OmpG^L6-SA1.1 (E. coli) (UniProt P76045)
Chain of OmpG^L6-SA1.1 (E. coli) (P76045 22-301): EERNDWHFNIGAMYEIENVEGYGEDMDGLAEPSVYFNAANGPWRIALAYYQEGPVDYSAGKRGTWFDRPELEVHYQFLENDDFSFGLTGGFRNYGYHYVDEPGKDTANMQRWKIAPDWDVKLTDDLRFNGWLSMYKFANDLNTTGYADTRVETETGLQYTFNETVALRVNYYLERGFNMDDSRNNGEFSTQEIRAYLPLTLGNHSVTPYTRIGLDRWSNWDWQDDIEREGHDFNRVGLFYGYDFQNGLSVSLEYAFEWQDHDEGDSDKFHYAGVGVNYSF

Chain of OmpG^L3/L6-SA1.1 (E. coli) (P76045 22-301): as above
Chain of OmpG^L3-FLAG/L6-SA1.1 (E. coli) (P76045 22-301): as above

Kd [1]: 0.03 µM
k'Off of the sub-events within a discrete binding event [1]: 0.7 s⁻¹
k'On 1 of the sub-events (rebinding) [1]: 3.9e+10 M⁻¹ s⁻¹
k'On 2 of the sub-events (rebinding) [1]: 4.4e+09 M⁻¹ s⁻¹
koff [1]: 0.01 s⁻¹
kon [1]: 326000 M⁻¹ s⁻¹
tau'On 1 of the sub-events (rebinding) [1]: 2.56 ms
tau'On 2 of the sub-events (rebinding) [1]: 22.9 ms
Kd [2]: 7.51 µM
koff [2]: 0.55 s⁻¹
kon [2]: 72200 M⁻¹ s⁻¹
Kd (OmpG^L6-SA1.1 (E. coli)): 10.1 µM
koff (OmpG^L6-SA1.1 (E. coli)): 0.78 s⁻¹
kon (OmpG^L6-SA1.1 (E. coli)): 77600 M⁻¹ s⁻¹
Substance: streptavidin (from UniProt P22629 25-183) (natural protein)
